Where no end group is shown, it is not given here. [ ]: non-standard residue; d: D form. 40K‑TE = not defined here; Ac3c = NC1(C(=O)O)CC1; Aib = CC(C)(N)C(=O)O
T1: GIP receptor (UniProt P48546 22-466, limits assumed)
T1 sequence (looked up): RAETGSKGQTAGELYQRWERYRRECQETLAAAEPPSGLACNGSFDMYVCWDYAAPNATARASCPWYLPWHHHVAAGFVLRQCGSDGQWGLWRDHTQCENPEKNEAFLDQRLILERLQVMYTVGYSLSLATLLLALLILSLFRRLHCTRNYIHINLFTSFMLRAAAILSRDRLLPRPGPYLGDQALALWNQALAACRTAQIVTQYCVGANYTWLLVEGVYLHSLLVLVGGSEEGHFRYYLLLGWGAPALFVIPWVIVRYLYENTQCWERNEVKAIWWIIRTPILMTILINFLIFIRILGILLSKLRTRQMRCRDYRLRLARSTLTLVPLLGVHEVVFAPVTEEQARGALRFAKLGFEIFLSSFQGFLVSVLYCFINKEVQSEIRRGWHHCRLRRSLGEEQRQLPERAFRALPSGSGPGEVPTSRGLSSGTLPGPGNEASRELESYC

B1: peptide of SEQ ID NO: 56 (peptide)
peptide: Y[Aib]QGTFTSDYSIYLDEQAAKEFV[Aib]WLLAGGPSSGAPPPSC-NH2
modifications: lactam (positions not given here); also: lactam between underlined residues, underlining not shown
B2: peptide of SEQ ID NO: 54 (peptide)
peptide: Y[Aib]QGTFTSDYSIYLDKQAA[Aib]EFV[Aib]WLLAGGPSSGAPPPSC-NH2
modifications: N-terminus assumed
SMILES: CC[C@H](C)[C@H](NC(=O)[C@H](CO)NC(=O)[C@H](Cc1ccc(O)cc1)NC(=O)[C@H](CC(=O)O)NC(=O)[C@H](CO)NC(=O)[C@@H](NC(=O)[C@H](Cc1ccccc1)NC(=O)[C@@H](NC(=O)CNC(=O)[C@H](CCC(N)=O)NC(=O)C(C)(C)NC(=O)[C@@H](N)Cc1ccc(O)cc1)[C@@H](C)O)[C@@H](C)O)C(=O)N[C@@H](Cc1ccc(O)cc1)C(=O)N[C@@H](CC(C)C)C(=O)N[C@@H](CC(=O)O)C(=O)N[C@@H](CCCCN)C(=O)N[C@@H](CCC(N)=O)C(=O)N[C@@H](C)C(=O)N[C@@H](C)C(=O)NC(C)(C)C(=O)N[C@@H](CCC(=O)O)C(=O)N[C@@H](Cc1ccccc1)C(=O)N[C@H](C(=O)NC(C)(C)C(=O)N[C@@H](Cc1c[nH]c2ccccc12)C(=O)N[C@@H](CC(C)C)C(=O)N[C@@H](CC(C)C)C(=O)N[C@@H](C)C(=O)NCC(=O)NCC(=O)N1CCC[C@H]1C(=O)N[C@@H](CO)C(=O)N[C@@H](CO)C(=O)NCC(=O)N[C@@H](C)C(=O)N1CCC[C@H]1C(=O)N1CCC[C@H]1C(=O)N1CCC[C@H]1C(=O)N[C@@H](CO)C(=O)N[C@@H](CS)C(N)=O)C(C)C
B3: peptide of SEQ ID NO: 50 (peptide)
peptide: Y[dS]QGTFTSDYSIYLDKQAA[Aib]EFVNWLLAGGPSSGAPPPSC-NH2
modifications: N-terminus assumed
SMILES: CC[C@H](C)[C@H](NC(=O)[C@H](CO)NC(=O)[C@H](Cc1ccc(O)cc1)NC(=O)[C@H](CC(=O)O)NC(=O)[C@H](CO)NC(=O)[C@@H](NC(=O)[C@H](Cc1ccccc1)NC(=O)[C@@H](NC(=O)CNC(=O)[C@H](CCC(N)=O)NC(=O)[C@@H](CO)NC(=O)[C@@H](N)Cc1ccc(O)cc1)[C@@H](C)O)[C@@H](C)O)C(=O)N[C@@H](Cc1ccc(O)cc1)C(=O)N[C@@H](CC(C)C)C(=O)N[C@@H](CC(=O)O)C(=O)N[C@@H](CCCCN)C(=O)N[C@@H](CCC(N)=O)C(=O)N[C@@H](C)C(=O)N[C@@H](C)C(=O)NC(C)(C)C(=O)N[C@@H](CCC(=O)O)C(=O)N[C@@H](Cc1ccccc1)C(=O)N[C@H](C(=O)N[C@@H](CC(N)=O)C(=O)N[C@@H](Cc1c[nH]c2ccccc12)C(=O)N[C@@H](CC(C)C)C(=O)N[C@@H](CC(C)C)C(=O)N[C@@H](C)C(=O)NCC(=O)NCC(=O)N1CCC[C@H]1C(=O)N[C@@H](CO)C(=O)N[C@@H](CO)C(=O)NCC(=O)N[C@@H](C)C(=O)N1CCC[C@H]1C(=O)N1CCC[C@H]1C(=O)N1CCC[C@H]1C(=O)N[C@@H](CO)C(=O)N[C@@H](CS)C(N)=O)C(C)C
B4: peptide of SEQ ID NO: 48 (peptide)
peptide: H[dS]QGTFTSDYSIYLDKQAA[Aib]EFVNWLLAGGPSSGAPPPSC-NH2
modifications: N-terminus assumed
SMILES: CC[C@H](C)[C@H](NC(=O)[C@H](CO)NC(=O)[C@H](Cc1ccc(O)cc1)NC(=O)[C@H](CC(=O)O)NC(=O)[C@H](CO)NC(=O)[C@@H](NC(=O)[C@H](Cc1ccccc1)NC(=O)[C@@H](NC(=O)CNC(=O)[C@H](CCC(N)=O)NC(=O)[C@@H](CO)NC(=O)[C@@H](N)Cc1c[nH]cn1)[C@@H](C)O)[C@@H](C)O)C(=O)N[C@@H](Cc1ccc(O)cc1)C(=O)N[C@@H](CC(C)C)C(=O)N[C@@H](CC(=O)O)C(=O)N[C@@H](CCCCN)C(=O)N[C@@H](CCC(N)=O)C(=O)N[C@@H](C)C(=O)N[C@@H](C)C(=O)NC(C)(C)C(=O)N[C@@H](CCC(=O)O)C(=O)N[C@@H](Cc1ccccc1)C(=O)N[C@H](C(=O)N[C@@H](CC(N)=O)C(=O)N[C@@H](Cc1c[nH]c2ccccc12)C(=O)N[C@@H](CC(C)C)C(=O)N[C@@H](CC(C)C)C(=O)N[C@@H](C)C(=O)NCC(=O)NCC(=O)N1CCC[C@H]1C(=O)N[C@@H](CO)C(=O)N[C@@H](CO)C(=O)NCC(=O)N[C@@H](C)C(=O)N1CCC[C@H]1C(=O)N1CCC[C@H]1C(=O)N1CCC[C@H]1C(=O)N[C@@H](CO)C(=O)N[C@@H](CS)C(N)=O)C(C)C
B5: peptide of SEQ ID NO: 52 (peptide)
peptide: H[Aib]QGTFTSDYSIYLDKQAA[Aib]EFVNWLLAGGPSSGAPPPSC-NH2
modifications: N-terminus assumed
SMILES: CC[C@H](C)[C@H](NC(=O)[C@H](CO)NC(=O)[C@H](Cc1ccc(O)cc1)NC(=O)[C@H](CC(=O)O)NC(=O)[C@H](CO)NC(=O)[C@@H](NC(=O)[C@H](Cc1ccccc1)NC(=O)[C@@H](NC(=O)CNC(=O)[C@H](CCC(N)=O)NC(=O)C(C)(C)NC(=O)[C@@H](N)Cc1c[nH]cn1)[C@@H](C)O)[C@@H](C)O)C(=O)N[C@@H](Cc1ccc(O)cc1)C(=O)N[C@@H](CC(C)C)C(=O)N[C@@H](CC(=O)O)C(=O)N[C@@H](CCCCN)C(=O)N[C@@H](CCC(N)=O)C(=O)N[C@@H](C)C(=O)N[C@@H](C)C(=O)NC(C)(C)C(=O)N[C@@H](CCC(=O)O)C(=O)N[C@@H](Cc1ccccc1)C(=O)N[C@H](C(=O)N[C@@H](CC(N)=O)C(=O)N[C@@H](Cc1c[nH]c2ccccc12)C(=O)N[C@@H](CC(C)C)C(=O)N[C@@H](CC(C)C)C(=O)N[C@@H](C)C(=O)NCC(=O)NCC(=O)N1CCC[C@H]1C(=O)N[C@@H](CO)C(=O)N[C@@H](CO)C(=O)NCC(=O)N[C@@H](C)C(=O)N1CCC[C@H]1C(=O)N1CCC[C@H]1C(=O)N1CCC[C@H]1C(=O)N[C@@H](CO)C(=O)N[C@@H](CS)C(N)=O)C(C)C

Each binder was assayed against glucagon receptor (UniProt P47871 26-477, limits assumed) (assay: cell-based or functional assay).
glucagon receptor, sequence (P47871 26-477 limits assumed): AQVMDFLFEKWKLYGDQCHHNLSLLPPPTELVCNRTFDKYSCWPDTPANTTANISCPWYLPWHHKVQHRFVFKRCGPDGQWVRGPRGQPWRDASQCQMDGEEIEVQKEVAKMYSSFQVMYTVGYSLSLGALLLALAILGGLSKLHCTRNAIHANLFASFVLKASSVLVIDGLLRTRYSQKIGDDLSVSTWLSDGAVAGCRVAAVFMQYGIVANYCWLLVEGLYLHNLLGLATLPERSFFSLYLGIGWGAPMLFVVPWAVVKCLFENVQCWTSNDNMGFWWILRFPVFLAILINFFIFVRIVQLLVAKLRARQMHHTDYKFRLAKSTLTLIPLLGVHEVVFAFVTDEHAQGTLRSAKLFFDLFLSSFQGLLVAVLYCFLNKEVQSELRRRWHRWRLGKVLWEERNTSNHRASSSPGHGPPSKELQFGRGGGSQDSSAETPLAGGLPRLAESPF

Row | Binder | EC50 (cAMP reporter)
1 | Y[Aib]QGTFTSDYSIYLDKQAA[Ac3c]EFVNWLLAGGPSSGAPPPSC-NH2 [peptide of SEQ ID NO: 60] | 47 pM
2 | B1 | 1270 pM
3 | B2 | 566 pM
4 | B3 | 41 pM
5 | B4 | 26 pM
6 | H[Aib]QGTFTSDYSIYLDKQAA[Aib]EFVNWLLAGGPSSGAPPPSC(40K‑TE)-NH2 (reading uncertain) [peptide of SEQ ID NO: 53] | 3510 pM
7 | Y[dS]QGTFTSDYSIYLDKQAA[Aib]EFVNWLLAGGPSSGAPPPSC(40K‑TE)-NH2 (reading uncertain) [peptide of SEQ ID NO: 51] | 255 pM
8 | B5 | 200 pM

These binders were tested against T1, GIP receptor (assay: cell-based or functional assay).

Row | Binder | EC50 (cAMP reporter)
9 | Y[Aib]QGTFTSDYSIYLDKQAA[Aib]EFVC(40K‑TE PEG)WLLAGGPSSGAPPPSK(C14)-NH2 [peptide of SEQ ID NO: 174] | 19 pM
10 | B1 | 1980 pM
11 | B2 | 467 pM
12 | B3 | 72 pM
13 | B4 | 433 pM
14 | H[Aib]QGTFTSDYSIYLDKQAA[Aib]EFVNWLLAGGPSSGAPPPSC(40K‑TE)-NH2 (reading uncertain) [peptide of SEQ ID NO: 53] | 232 pM
15 | Y[dS]QGTFTSDYSIYLDKQAA[Aib]EFVNWLLAGGPSSGAPPPSC(40K‑TE)-NH2 (reading uncertain) [peptide of SEQ ID NO: 51] | 433 pM
16 | B5 | 6 pM

Each binder was assayed against GLP-1 receptor (UniProt P43220 24-463, limits assumed) (assay: cell-based or functional assay).

Row | Binder | EC50 (cAMP reporter)
17 | Y[Aib]QGTFTSDYSIYLDKQAA[Ac3c]EFVNWLLAGGPSSGAPPPSC-NH2 [peptide of SEQ ID NO: 60] | 2.8 pM
18 | Y[Aib]QGTFTSDYSIYLDKQAA[Aib]EFVC(40K‑TE PEG)WLLAGGPSSGAPPPSK(C14)-NH2 [peptide of SEQ ID NO: 174] | 10 pM
19 | B1 | 96 pM
20 | B2 | 91 pM
21 | B3 | 108 pM
22 | B4 | 10 pM
23 | H[Aib]QGTFTSDYSIYLDKQAA[Aib]EFVNWLLAGGPSSGAPPPSC(40K‑TE)-NH2 (reading uncertain) [peptide of SEQ ID NO: 53] | 27 pM
24 | Y[dS]QGTFTSDYSIYLDKQAA[Aib]EFVNWLLAGGPSSGAPPPSC(40K‑TE)-NH2 (reading uncertain) [peptide of SEQ ID NO: 51] | 572 pM
25 | B5 | 5 pM
